In test [1] the target is T1, cytosolic domain of human PRRG4 (human, UniProt Q9BZD6 139-226).
T1 construct: Expressed in insect cells; also called cytosolic hPPRG4; cystosolic domain of hPPRG4; not shown: purified by HA and histidine columns, so HA and His tags are implied
T1 sequence: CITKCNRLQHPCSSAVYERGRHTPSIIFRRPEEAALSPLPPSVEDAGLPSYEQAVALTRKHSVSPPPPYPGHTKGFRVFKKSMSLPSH
Description: SH3 domain array probed with purified cytosolic hPRRG4; listed as a hit. The method, then:
(§1) The cystosolic domain of hPPRG4 was expressed in insect cells and proteins were purified by HA and histidine columns. Interactions of cytosolic hPPRG4 with different SH3 and WW domains were tested by incubating purified hPRRG4 proteins with arrays containing SH3 and WW domains of several proteins. After incubation, PRRG4 bound to several proteins, most of which are non-receptor tyrosine kinases or scaffolding proteins. These newly identified binding partners provide valuable therapeutic targets for the isolation and characterization of therapeutic agents that impact PRRG4 mediated oncogenesis.

The target of test [2] is T1, cytosolic domain of human PRRG4. Description: WW domain array probed with purified cytosolic hPRRG4; listed as a hit.
Description: PRRG4 has one WW-binding domain in its cytosolic domain. WW domains are involved in several cellular processes including cell cycle control and cell proliferation. In order to analyze the possible interactions of PRRG4 with different WW motif containing proteins, the cytosolic domain of human PRRG4 was purified by our group and used in TranSignal WW Domain Arrays. This array contains WW domains from 67 different human proteins and each WW domain is spotted in duplicate. […] Among these proteins Yes-Associated Protein1 (YAP 1) and Nedd4 are particularly important as they are known to play essential roles in several cellular activities including cell proliferation. FIGS. 9 and 10 are tables that show the proteins that are used on the array.
as §1

B1: Peroxisomal membrane protein PEX13 (other, UniProt Q92968 272-336, looked up)
chain: DDHVVARAEYDFAAVSEEEISFRAGDMLNLALKEQQPKVRGWLLASLDGQTTGLIPANYVKILGK
notes: domain: SH3 domain; Array spot; also called PEXD
Consider B1, for which the binding result in test [1] is given as “binds”.

B2: PAK-interacting exchange factor beta (other, UniProt Q14155 184-243, looked up)
chain: NNQLVVRAKFNFQQTNEDELSFSKGDVIHVTRVEEGGWWEGTLNGRTGWFPSNYVREVKA
notes: domain: SH3 domain; Array spot; also called Y124
As for B2, the binding result in test [1] is “binds”.

Regarding LPLPPGWEMTFTATGQRYFLNHIEKITTWQDPRK (other, human, UniProt Q9GZV5 124-157, looked up, domain: WW domain; Array spot) [transcriptional co-activator with PDZ-binding motif (TAZ)], the binding result in test [2] is reported as “binds”.

B3: Lyn, Src family of non-receptor protein Tyrosine kinase (other, UniProt P07948 63-123, looked up)
chain: EQGDIVVALYPYDGIHPDDLSFKKGEKMKVLEEHGEWWKAKSLLTKKEGFIPSNYVAKLNT
notes: domain: SH3 domain; Array spot
B3: in test [1], the binding result was “binds”.

B4: Grb2-related adaptor protein, SH3 Domain #2 (other, UniProt Q13588 158-217, looked up)
chain: PGACFAQAQFDFSAQDPSQLSFRRGDIIEVLERPDPHWWRGRSCGRVGFFPRSYVQPVHL
notes: domain: SH3 Domain #2; Array spot; also called Grap-D2
For B4, the binding result in test [1] is “binds”.

B5: Abelson-related protein; Arg tyrosine kinase (other, UniProt P42684 107-167, looked up)
chain: SDPNLFVALYDFVASGDNTLSITKGEKLRVLGYNQNGEWSEVRSKNGQGWVPSNYITPVNS
notes: domain: SH3 domain; Array spot; also called Abl2
With B5, the binding result in test [1] is given as “binds”.

B6: Nebulette (other, UniProt O76041 954-1014, looked up)
chain: PNLRTYRAMYDYSAQDEDEVSFRDGDYIVNVQPIDDGWMYGTVQRTGRTGMLPANYIEFVN
notes: domain: SH3 domain; Array spot; also called NEBL
On to B6, for which the binding result in test [1] is “binds”.

B7: Bruton Tyrosine Kinase (other, UniProt Q06187 214-274, looked up)
chain: SELKKVVALYDYMPMNANDLQLRKGDEYFILEESNLPWWRARDKNGQEGYIPSNYVTEAED
notes: domain: SH3 domain; Array spot; also called BTK
As for B7, in test [1], the binding result is “binds”.

B8: Tyrosine-protein kinase Tec (other, UniProt P42680 179-239, looked up)
chain: NSEEIVVAMYDFQAAEGHDLRLERGQEYLILEKNDVHWWRARDKYGNEGYIPSNYVTGKKS
notes: as for B3
As for B8, in test [1], the binding result is listed as “binds”.

B9: Osteoclast stimulating factor 1 (other, UniProt Q92882 12-71, looked up)
chain: GQVKVFRALYTFEPRTPDELYFEEGDIIYITDMSDTNWWKGTSKGRTGLIPSNYVAEQAE
notes: domain: SH3 domain; Array spot; also called OSF
As to B9, the binding result in test [1] is listed as “binds”.

These data come from patent US20100017897A1 (CHILDREN S HOSPITAL OF PHILADELPHIA, published 2010).
